Results taken from paper PMC2186165.

Molecular target: B lymphocyte surface IgM (mouse (endogenous in spleen cells))
Experiment: cocapping

Sequence of B lymphocyte surface IgM (mouse (endogenous in spleen cells)) (P01872 whole entry): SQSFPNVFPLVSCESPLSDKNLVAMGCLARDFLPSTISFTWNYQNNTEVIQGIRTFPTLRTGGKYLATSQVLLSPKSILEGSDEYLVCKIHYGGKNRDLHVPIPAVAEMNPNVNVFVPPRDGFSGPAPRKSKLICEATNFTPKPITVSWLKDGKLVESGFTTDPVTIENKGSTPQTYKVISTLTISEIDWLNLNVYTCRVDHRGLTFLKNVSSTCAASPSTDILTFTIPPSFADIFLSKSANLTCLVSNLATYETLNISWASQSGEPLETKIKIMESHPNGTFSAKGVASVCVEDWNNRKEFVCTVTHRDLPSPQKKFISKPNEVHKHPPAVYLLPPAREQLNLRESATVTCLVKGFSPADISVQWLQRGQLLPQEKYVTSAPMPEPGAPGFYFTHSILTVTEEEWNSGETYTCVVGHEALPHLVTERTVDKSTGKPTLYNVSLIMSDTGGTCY

Substance: B lymphocyte Fc IgG receptor (from UniProt P08101 30-330)
- % of B lymphocytes with capped sIgM that also had capped FcGR (12 experiments): 86%
- % of FcGR-positive cells with FcGR capped (Table III, experiment B, part 4): 62%
- % of FcGR-positive cells with FcGR capped (Table IV, part 4): 46%
